Laboratory results as given in PMC12588321, “Congenital heart disease missense mutations in the TBX5 DNA-binding domain alter thermal stability and DNA-binding affinity”.

Columns and labels:
Test in all cases: EMSA; EMSA: 50 mM NaCl, 10 mM Tris-HCl pH 8.0, 10% glycerol; protein 0-2000 nM; 30 min at 30 °C then 30 min at room temperature; 6% native PAGE in 0.5x TBE; 3 replicates
Conditions in all cases: protein: recombinant; tags: N-terminal Strep-Tag II, C-terminal 10xHis; label: IRDye 700
TBX5 T-box domain I54T = target: T1, TBX5 T-box domain I54T (human? (UniProt Q99593 used for …, UniProt Q99593 48-248, I54T))
T1 sequence: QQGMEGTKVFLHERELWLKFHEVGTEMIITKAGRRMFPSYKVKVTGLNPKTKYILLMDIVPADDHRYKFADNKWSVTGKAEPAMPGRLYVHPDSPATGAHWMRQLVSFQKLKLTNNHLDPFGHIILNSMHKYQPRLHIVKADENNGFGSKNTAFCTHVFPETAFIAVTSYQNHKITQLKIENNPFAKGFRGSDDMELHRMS

TBX5 T-box domain R237W = target: T2, TBX5 T-box domain R237W (human? (UniProt Q99593 used for …, UniProt Q99593 48-248, R237W))
T2 sequence: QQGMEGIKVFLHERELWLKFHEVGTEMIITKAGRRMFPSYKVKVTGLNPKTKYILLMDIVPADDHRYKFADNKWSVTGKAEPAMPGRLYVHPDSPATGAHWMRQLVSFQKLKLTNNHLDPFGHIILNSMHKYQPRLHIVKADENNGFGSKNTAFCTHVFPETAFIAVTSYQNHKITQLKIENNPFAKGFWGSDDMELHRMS

TBX5 T-box domain M74V = target: T3, TBX5 T-box domain M74V (human? (UniProt Q99593 used for …, UniProt Q99593 48-248, M74V))
T3 sequence: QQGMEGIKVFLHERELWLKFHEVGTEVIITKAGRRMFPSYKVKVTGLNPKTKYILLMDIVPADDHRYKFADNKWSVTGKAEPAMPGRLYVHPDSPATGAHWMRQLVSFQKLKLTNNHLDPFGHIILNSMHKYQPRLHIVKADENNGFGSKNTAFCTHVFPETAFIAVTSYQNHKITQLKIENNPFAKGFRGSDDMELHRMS

TBX5 T-box domain R113K = target: T4, TBX5 T-box domain R113K (human? (UniProt Q99593 used for …, UniProt Q99593 48-248, R113K))
T4 sequence: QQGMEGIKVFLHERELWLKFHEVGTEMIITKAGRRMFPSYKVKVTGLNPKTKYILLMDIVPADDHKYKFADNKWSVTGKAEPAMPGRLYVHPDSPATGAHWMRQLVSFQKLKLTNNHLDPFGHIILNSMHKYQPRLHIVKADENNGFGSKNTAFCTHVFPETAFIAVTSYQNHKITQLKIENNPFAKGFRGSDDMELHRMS

TBX5 T-box domain I101F = target: T5, TBX5 T-box domain I101F (human? (UniProt Q99593 used for …, UniProt Q99593 48-248, I101F))
T5 sequence: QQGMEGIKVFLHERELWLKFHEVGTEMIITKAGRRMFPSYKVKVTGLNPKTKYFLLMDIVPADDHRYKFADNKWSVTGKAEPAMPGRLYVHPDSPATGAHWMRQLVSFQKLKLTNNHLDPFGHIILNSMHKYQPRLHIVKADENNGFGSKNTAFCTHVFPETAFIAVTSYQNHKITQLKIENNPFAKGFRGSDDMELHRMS

Binder | binding signal (TBX5 T-box domain I54T) [fold change in Bmax vs WT] | binding signal (TBX5 T-box domain R237W) [fold change in Bmax vs WT] | binding signal (TBX5 T-box domain M74V) [fold change in Bmax vs WT] | binding signal (TBX5 T-box domain R113K) [fold change in Bmax vs WT] | binding signal (TBX5 T-box domain I101F) [fold change in Bmax vs WT]
Nppa (ANF) promoter probe (dsDNA) DNA 1: CCCGGTTTTGTGATTCTCTCTCTCACACCTTCAGCAGGAACGTGCCAATGCCGCCGTAAG DNA 2: CTTACGGCGGCATTGGCACGTTCCTGCTGAAGGTGTGAGAGAGAGAATCACAAAACCGGG | -1.65 | -3.76 | -3.27 | -2.87 | -1.26
Camta1 promoter probe (dsDNA) DNA 1: GCAGATCTCCTGCTGGGCTGACACCTCACTATCGCAGAACCGTGCCAATGCCGCCGTAAG DNA 2: CTTACGGCGGCATTGGCACGGTTCTGCGATAGTGAGGTGTCAGCCCAGCAGGAGATCTGC | -1.34 | -10.5 | -2.93 | -1.49 | -1.38
